Data: patent US20210147563A1 (GENEUIN TECH, published 2021)
Values belong to the binder of their own block, whether it stands above or below them.

Legend:
[1] = target: T1, DR4 expressed on the cell surface of cancer cells (HeLa, HCT-116) (human) (UniProt O00220); test: cell-based or functional assay
T1 sequence (looked up): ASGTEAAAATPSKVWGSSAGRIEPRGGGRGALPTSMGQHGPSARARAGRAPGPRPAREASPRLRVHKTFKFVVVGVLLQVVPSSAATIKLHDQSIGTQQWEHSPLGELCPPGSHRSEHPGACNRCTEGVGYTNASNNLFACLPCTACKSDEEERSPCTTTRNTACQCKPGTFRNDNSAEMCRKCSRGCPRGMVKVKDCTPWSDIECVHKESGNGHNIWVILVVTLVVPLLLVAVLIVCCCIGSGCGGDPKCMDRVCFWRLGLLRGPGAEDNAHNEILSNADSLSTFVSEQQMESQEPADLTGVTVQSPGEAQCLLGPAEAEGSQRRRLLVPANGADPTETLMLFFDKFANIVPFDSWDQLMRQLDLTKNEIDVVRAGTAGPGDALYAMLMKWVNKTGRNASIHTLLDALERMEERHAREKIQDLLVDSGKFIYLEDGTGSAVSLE

[2] = target: T2, DR4 expressed on the cell surface of cancer cells (HeLa, HCT-116) (human, UniProt O00220 24-468); test: inferred from apoptosis (MTT) assay on DR4-expressing HeLa and HCT-116 cells against DR4-negative HEK293 cells; no direct binding assay
T2 construct: whole, on cells; also called death receptor 4; DR4 trimer
T2 sequence (looked up): T1 sequence (looked up)
Method: To this end, apoptosis-inducing effects of secretory humanized DR4 scFv antibody recombinant protein were analyzed using HeLa cells, a cervical cancer cell line expressing DR4 on the cell surface, and HCT-116 cells, a colon cancer cell line. […] Each of these three cells was inoculated in a culture dish and cultured overnight, and then the secretory humanized DR4 scFv antibody recombinant protein was added to the culture medium, and the degree of death of the cells during culturing was determined by MTT method (Cyto X™ Cell viability assay kit, LPS solution, Korea).

B1: humanized DR4 scFv chimeric antigen receptor (CAR) (protein, part only; not given: hinge, transmembrane and signaling domains, not shown: a dimerising Fc or GST; small tags and cut ends)
chain, part: EVQLVESGGGLVQPGGSLRLSCSASGFTFSSYSMQWVRQAPGKGLEYVAGIRSDGRYTNYGAAVKGRATISRDNSKNTVYLQMNSLRAEDTAVYYCAKGAYGYCGSTCAPYLGQIDAWGQGTLVTVSSGSTSGSGKPGSGEGSTKGSYELTQPPSVSVSPGQTVRITCSGGRYTYGWFQQKPGQAPVTVIYGNDKRPSNIPSRFSGSTSGSTVTLTISGVQAEDEADYYCGGADFSAGLFGGGTKLTVL
- cytotoxicity of CAR expressing lymphocytes on HeLa cells against HEK293 cells (CellTox Green fluorescence, effector:target 10:1, 3 days) [1]: 2 to 3 times

- binding result [2]: binds
B2: secretory humanized DR4 scFv antibody recombinant protein (scFv)
scFv: B1 chain, part
notes: Secreted from HEK293 cells transfected with pCMVFL-srkDR4 and purified through the His tag; no cleavage site is stated; also called secretory (soluble form) humanized DR4 scFv antibody fragment recombinant protein; humanized anti-DR4 scFv; not shown: Flag tag; IgG3 hinge; isoleucine zipper (ILZ) peptide; His6 tag
